Assay results from publication PMC8881611, “A mechanism of origin licensing control through autoinhibition of S. cerevisiae ORC·DNA·Cdc6” (Nature Communications, 2022).

What was measured:
Test in all cases: pull-down; amylose pulldown, ORC with MBP-tagged Orc4 as bait; 0.5 uM ScORC, 0.5 uM 84 bp ARS1 dsDNA, 1 uM ScCdc6, 10 uM ScMcm7 (titrations 1.5, 5, 10 uM), 2 mM ATPγS; 25 mM HEPES pH 7.5, 300 mM potassium acetate, 10 mM magnesium acetate, 1 mM DTT; on ice; maltose elution, Coomassie-stained SDS-PAGE
Conditions in all cases: both partners purified
[1] = molecular target: T1, ScORC·DNA·Cdc6 with MBP-tagged ORC holding Orc6 ΔCBN (Orc6Δ1-120), ORC phosphorylated by CDK (S. cerevisiae, UniProt P54784 1-914; P32833 1-620; P54790 1-616; P54791 1-529; P50874 1-479; P38826 …, ORC treated with CDK; phosphorylated sites not printed | ORC treated with CDK; phosphorylated sites not given)
T1 construct: Orc1, S. cerevisiae, wild type; Orc2, S. cerevisiae, wild type; Orc3, S. cerevisiae, wild type; Orc4, S. cerevisiae, wild type; Orc5, S. cerevisiae, wild type; Orc6, S. cerevisiae, truncation Orc6Δ1-120 (lacks the N-terminal cyclin box fold); Cdc6, S. cerevisiae, wild type; ORC phosphorylated by CDK before assembly with DNA, Cdc6 and ATPγS; also called Orc6 ΔCBN, CDK; Orc6^ΔN120; source: MBP-ORC: …

[2] = molecular target: T2, ScORC·DNA·Cdc6 with MBP-tagged ORC holding Orc6 ΔCBN/Δlinker (Orc6Δ1-269), ORC dephosphorylated with λ … (S. cerevisiae, UniProt P54784 1-914; P32833 1-620; P54790 1-616; P54791 1-529; P50874 1-479; P38826 …, ORC treated with λ phosphatase)
T2 construct: Orc1, S. cerevisiae, wild type; Orc2, S. cerevisiae, wild type; Orc3, S. cerevisiae, wild type; Orc4, S. cerevisiae, wild type; Orc5, S. cerevisiae, wild type; Orc6, S. cerevisiae, truncation Orc6Δ1-269 (lacks the N-terminal cyclin box fold and the flexible linker); Cdc6, S. cerevisiae, wild type; ORC dephosphorylated before assembly with DNA, Cdc6 and ATPγS; also called Orc6 ΔCBN/Δlinker, λ …

[3] = molecular target: T3, ScORC·DNA·Cdc6 with MBP-tagged ORC holding Orc6 ΔCBN/Δlinker (Orc6Δ1-269), ORC untreated (S. cerevisiae, UniProt P54784 1-914; P32833 1-620; P54790 1-616; P54791 1-529; P50874 1-479; P38826 …)
T3 construct: Orc1, S. cerevisiae, wild type; Orc2, S. cerevisiae, wild type; Orc3, S. cerevisiae, wild type; Orc4, S. cerevisiae, wild type; Orc5, S. cerevisiae, wild type; Orc6, S. cerevisiae, truncation Orc6Δ1-269 (lacks the N-terminal cyclin box fold and the flexible linker); Cdc6, S. cerevisiae, wild type; also called Orc6^ΔN269; source: MBP-ORC: High5 insect cells, purified (no TEV cleavage); Cdc6: …

[4] = molecular target: T4, ScORC·DNA·Cdc6 with MBP-tagged ORC holding Orc6 ΔCBN (Orc6Δ1-120), ORC dephosphorylated with λ phosphatase (S. cerevisiae, UniProt P54784 1-914; P32833 1-620; P54790 1-616; P54791 1-529; P50874 1-479; P38826 …, ORC treated with λ phosphatase | ORC treated with λ phosphatase)
T4 construct: Orc1, S. cerevisiae, wild type; Orc2, S. cerevisiae, wild type; Orc3, S. cerevisiae, wild type; Orc4, S. cerevisiae, wild type; Orc5, S. cerevisiae, wild type; Orc6, S. cerevisiae, truncation Orc6Δ1-120 (lacks the N-terminal cyclin box fold); Cdc6, S. cerevisiae, wild type; ORC dephosphorylated before assembly with DNA, Cdc6 and ATPγS; also called Orc6 ΔCBN, λ phosphatase; Orc6^ΔN120; source: …

[5] = molecular target: T5, ScORC·DNA·Cdc6 with MBP-tagged ORC holding Orc6 ΔCBN (Orc6Δ1-120), ORC untreated (S. cerevisiae, UniProt P54784 1-914; P32833 1-620; P54790 1-616; P54791 1-529; P50874 1-479; P38826 …)
T5 construct: Orc1, S. cerevisiae, wild type; Orc2, S. cerevisiae, wild type; Orc3, S. cerevisiae, wild type; Orc4, S. cerevisiae, wild type; Orc5, S. cerevisiae, wild type; Orc6, S. cerevisiae, truncation Orc6Δ1-120 (lacks the N-terminal cyclin box fold); Cdc6, S. cerevisiae, wild type; The unstructured linker region of Orc6ΔCBN is prone to proteolytic cleavage during expression and purification; also called …

Measured: binding result

B1: S. cerevisiae Mcm7 (ScMcm7) (natural protein, UniProt P38132 1-845, looked up)
chain: MSAALPSIQLPVDYNNLFNEITDFLVTFKQDTLSSDATRNENEDENLDAENIEQHLLEKGPKYMAMLQKVANRELNSVIIDLDDILQYQNEKFLQGTQADDLVSAIQQNANHFTELFCRAIDNNMPLPTKEIDYKDDVLDVILNQRRLRNERMLSDRTNEIRSENLMDTTMDPPSSMNDALREVVEDETELFPPNLTRRYFLYFKPLSQNCARRYRKKAISSKPLSVRQIKGDFLGQLITVRGIITRVSDVKPAVEVIAYTCDQCGYEVFQEVNSRTFTPLSECTSEECSQNQTKGQLFMSTRASKFSAFQECKIQELSQQVPVGHIPRSLNIHVNGTLVRSLSPGDIVDVTGIFLPAPYTGFKALKAGLLTETYLEAQFVRQHKKKFASFSLTSDVEERVMELITSGDVYNRLAKSIAPEIYGNLDVKKALLLLLVGGVDKRVGDGMKIRGDINVCLMGDPGVAKSQLLKAICKISPRGVYTTGKGSSGVGLTAAVMKDPVTDEMILEGGALVLADNGICCIDEFDKMDESDRTAIHEVMEQQTISISKAGINTTLNARTSILAAANPLYGRYNPRLSPLDNINLPAALLSRFDILFLMLDIPSRDDDEKLAEHVTYVHMHNKQPDLDFTPVEPSKMREYIAYAKTKRPVMSEAVNDYVVQAYIRLRQDSKREMDSKFSFGQATPRTLLGIIRLSQALAKLRLADMVDIDDVEEALRLVRVSKESLYQETNKSKEDESPTTKIFTIIKKMLQETGKNTLSYENIVKTVRLRGFTMLQLSNCIQEYSYLNVWHLINEGNTLKFVDDGTMDTDQEDSLVSTPKLAPQTTASANVSAQDSDIDLQDA
notes: Mcm7, S. cerevisiae; migrates as a doublet on SDS-PAGE; source: E. coli BL21 RIL, purified (HisTrap, amylose, TEV cleavage, HisTrap, gel filtration); not shown: His6, N-terminal, cleaved; MBP, N-terminal, cleaved
binds: [1] | [2] | [3] | [4] | [5]
